Positions count from the first letter of the chain named. Numbers in names are those of the source.

For data set [1] the following is noted: following a typical clinical dose of tamoxifen; cited from earlier work.
Data set [2] concerns NK cells. The experiment in a line: Validation of ERT2 mutants with mCherry reporter in NK cells. It counts as cell-based. As to conditions: primary NK cells. On the procedure:
After 10 days of feeder cell activation, NK cells were co-transduced with ERT2 mutant virus and reporter SB01066 virus (Experimental Set-up 1). On Day 2 after transduction, transduced NK cells were treated with endoxifen or 4-OHT at a range of concentrations of 0 nM, 0.01 nM, 0.1 nM, 1 nM, and 10 nM. On Day 4, cells were checked for mCherry expression by flow cytometry.

In the case of `CC/C(=C(\c1ccccc1)c1ccc(OCCN(C)C)cc1)c1ccccc1` [tamoxifen], the “average peak plasma concentration” value in data set [1] is “approximately 40 ng/mL”.

B1: SB06142: L354I/L391V/N413D/M421L/S463P/M517A/H524L (protein)
chain: SAGDMRAANLWPSPLMIKRSKKNSLALSLTADQMVSALLDAEPPILYSEYDPTRPFSEASMMGLLTNLADREIVHMINWAKRVPGFVDLTLHDQVHLLECAWLEILMIGVVWRSMEHPVKLLFAPNLLLDRDQGKCVEGLVEIFDMLLATSSRFRMMNLQGEEFVCLKSIILLNSGVYTFLPSTLKSLEEKDHIHRVLDKITDTLIHLMAKAGLTLQQQHQRLAQLLLILSHIRHASNKGMELLYSMKCKNVVPLYDLLLEAADAHRLHAPTSRGGASVEETDQSHLATAGSTSSHSLQKYYITGEAEGFPATA
For B1, in data set [2], the “4-OHT concentration at which variant is sensitive” value (“4-OHT concentration” below) was 0.1 nM and the “endoxifen concentration at which variant is sensitive” value (shortened to “endoxifen concentration”) is 0.1 nM.

B2: SB06145: L409V/N413D/Q414E/M421L/S463P/H524L (protein)
chain: B1 chain with I73L, V110L, L128V, Q133E, A236M
As for B2, in data set [2], the “4-OHT concentration” value stood at 0.1 nM and the “endoxifen concentration” value is given as 0.1 nM.

B3: SB06136: L384M/L391V/N413D/M421L/S463P/H524L (protein)
chain: B1 chain with I73L, L103M, A236M
Consider B3, for which, in data set [2], the “4-OHT concentration” value is on record as 0.1 nM and the “endoxifen concentration” value is 0.1 nM.
